# Measurements as given in paper PMC11180338 (The Journal of Biological Chemistry, 2024).
# Like-named read-outs stand apart in the source and are kept apart here.
# Experiments:
# [1] = target: nucleocapsid protein (N) 175-245 (UniProt P0DTC9); settings: sites S188
# [2] = target: nucleocapsid protein (N) 175-245 (UniProt P0DTC9); settings: sites S188; remark: listed apart in the source
# [3] = target: nucleocapsid protein (N) 175-365 (UniProt P0DTC9); settings: sites S188
# AUC = target: the molecule itself; assay: AUC
molecule,measurement,setting,value
nucleocapsid protein (N) 175-245 (from UniProt P0DTC9),binding against the reference,[1],weaker
same,binding against the reference,[2],weaker
nucleocapsid protein (N) 175-365 (from UniProt P0DTC9),binding against the reference,[3],same
"WT-N_(175–245) GFP, GFP-tagged N_(175–245) (domain or fragment) GSRGGSQASSRSSSRSRNSSRNSTPGSSRGTSPARMAGNGGDAALALLLLDRLNQLESKMSGKGQQQQGQT",Kd,AUC,77 µM
same,stoichiometry N,AUC,2
"pSer188-N_(175–245) GFP (domain or fragment, phosphoserine at 188) GSRGGSQASSRSSSRSRNSSRNSTPGSSRGTSPARMAGNGGDAALALLLLDRLNQLESKMSGKGQQQQGQT",Kd,AUC,235 µM
